No end group written: not given here. *: point of attachment. Biotin = O=C1N[C@H]2[C@H](CS[C@H]2CCCCC(=O)*)N1
Columns and labels:
Experiment in all cases: peptide ELISA on streptavidin plate
ET140-p34 = target: T1, ET140-p34 (human, cysteine pairing not given here)
T1 construct: also called peptide 34
T1 peptide: Biotin-SGSGLTCQRYCNASVTNSV
Experimental: (§1) The peptides were coated onto Streptavidin plates at 2 ug/mL in PBST (PBS+0.05% Tween-20). After washing and blocking with 3% BSA. […] “mIgG1” used in all Examples represents that the variable region is fully human and the Fc part is mouse IgG1. Then HRP anti-mouse IgG detection antibody was added to each well. Finally, the color was developed using TMB substrate. A450 was recorded for data analysis.

ET140-p18 = target: T2, ET140-p18 (human, cysteine pairing not given here)
T2 construct: also called peptide 18
T2 peptide: Biotin-SGSGHACIPCQLRCSSNTP
Experimental: as §1

ET140-p27 = target: T3, ET140-p27 (human, cysteine pairing not given here)
T3 construct: also called peptide 27
T3 peptide: Biotin-SGSGCSSNTPPLTCQRYCN
Experimental: as §1

ET140-p38 = target: T4, ET140-p38 (human)
T4 construct: also called peptide 38
T4 peptide: Biotin-SGSGRYCNASVTNSVKGTN
Experimental: as §1

ET140-p5 = target: T5, ET140-p5 (human)
T5 construct: also called peptide 5
T5 peptide: Biotin-SGSGGQCSQNEYFDSLLHA
Experimental: as §1

ET140-p23 = target: T6, ET140-p23 (human, cysteine pairing not given here)
T6 construct: also called peptide 23
T6 peptide: Biotin-SGSGCQLRCSSNTPPLTCQ
Experimental: as §1

ET140-p14 = target: T7, ET140-p14 (human, cysteine pairing not given here)
T7 construct: also called peptide 14
T7 peptide: Biotin-SGSGDSLLHACIPCQLRCS
Experimental: as §1

ET140-p29 = target: T8, ET140-p29 (human, cysteine pairing not given here)
T8 construct: also called peptide 29
T8 peptide: Biotin-SGSGSNTPPLTCQRYCNAS
Experimental: as §1

ET140-p24 = target: T9, ET140-p24 (human, cysteine pairing not given here)
T9 construct: also called peptide 24
T9 peptide: Biotin-SGSGQLRCSSNTPPLTCQR
Experimental: as §1

ET140-p2 = target: T10, ET140-p2 (human)
T10 construct: also called peptide 2
T10 peptide: Biotin-SGSGQMAGQCSQNEYFDSL
Experimental: as §1

ET140-p30 = target: T11, ET140-p30 (human, cysteine pairing not given here)
T11 construct: also called peptide 30
T11 peptide: Biotin-SGSGNTPPLTCQRYCNASV
Experimental: as §1

ET140-p21 = target: T12, ET140-p21 (human, cysteine pairing not given here)
T12 construct: also called peptide 21
T12 peptide: Biotin-SGSGIPCQLRCSSNTPPLT
Experimental: as §1

ET140-p33 = target: T13, ET140-p33 (human, cysteine pairing not given here)
T13 construct: also called peptide 33
T13 peptide: Biotin-SGSGPLTCQRYCNASVTNS
Experimental: as §1

ET140-p37 = target: T14, ET140-p37 (human)
T14 construct: also called peptide 37
T14 peptide: Biotin-SGSGQRYCNASVTNSVKGT
Experimental: as §1

ET140-p3 = target: T15, ET140-p3 (human)
T15 construct: also called peptide 3
T15 peptide: Biotin-SGSGMAGQCSQNEYFDSLL
Experimental: as §1

ET140-p36 = target: T16, ET140-p36 (human, cysteine pairing not given here)
T16 construct: also called peptide 36
T16 peptide: Biotin-SGSGCQRYCNASVTNSVKG
Experimental: as §1

ET140-p20 = target: T17, ET140-p20 (human, cysteine pairing not given here)
T17 construct: also called peptide 20
T17 peptide: Biotin-SGSGCIPCQLRCSSNTPPL
Experimental: as §1

ET140-p4 = target: T18, ET140-p4 (human)
T18 construct: also called peptide 4
T18 peptide: Biotin-SGSGAGQCSQNEYFDSLLH
Experimental: as §1

ET140-p16 = target: T19, ET140-p16 (human, cysteine pairing not given here)
T19 construct: also called peptide 16
T19 peptide: Biotin-SGSGLLHACIPCQLRCSSN
Experimental: as §1

ET140-p1 = target: T20, ET140-p1 (human)
T20 construct: also called peptide 1; ET140-pl
T20 peptide: Biotin-SGSGLQMAGQCSQNEYFDS
Experimental: as §1

ET140-p31 = target: T21, ET140-p31 (human, cysteine pairing not given here)
T21 construct: also called peptide 31
T21 peptide: Biotin-SGSGTPPLTCQRYCNASVT
Experimental: as §1

ET140-p15 = target: T22, ET140-p15 (human, cysteine pairing not given here)
T22 construct: also called peptide 15
T22 peptide: Biotin-SGSGSLLHACIPCQLRCSS
Experimental: as §1

ET140-p22 = target: T23, ET140-p22 (human, cysteine pairing not given here)
T23 construct: also called peptide 22
T23 peptide: Biotin-SGSGPCQLRCSSNTPPLTC
Experimental: as §1

ET140-p39 = target: T24, ET140-p39 (human)
T24 construct: also called peptide 39
T24 peptide: Biotin-SGSGYCNASVTNSVKGTNA
Experimental: as §1

ET140-p17 = target: T25, ET140-p17 (human, cysteine pairing not given here)
T25 construct: also called peptide 17
T25 peptide: Biotin-SGSGLHACIPCQLRCSSNT
Experimental: as §1

Measured: binding result

B1: ET140-153 mIgG1 (antibody, V domains shown)
VH: QVQLVQSGAEVKKPGSSVKVSCKASGGTFSSYAISWVRQAPGQGLEWMGRIIPILGIANYAQKFQGRVTITADKSTSTAYMELSSLRSEDTAVYYCARGGYYSHDMWSEDWGQGTLVTVSS
VL: LPVLTQPPSASGTPGQRVTISCSGRSSNIGSNSVNWYRQLPGAAPKLLIYSNNQRPPGVPVRFSGSKSGTSASLAISGLQSEDEATYYCATWDDNLNVHYVFGTGTKVTVLG
notes: also called ET140-3 mIgG1; ET140-3
no binding (tested: 1 ug/mL): all assays above

From patent publication US20210346432A1 (Memorial Sloan Kettering, published 2021)
